Holding throughout (experiment): cell-based or functional assay
For assay [1], the target named is scrambled OVA peptide, scOVAp.
In assay [2] the target is GBSIII-OVAp (GBSIII conjugated to N-acetylated, C-terminally extended OVA323-339).
The target of assay [3] is OVA peptide 323-339 (OVAp).

“T-cell receptor of DO11.10 transgenic mice that recognizes OVA peptide 323-339 in the context of MHC class II (I-A^d) (TCR)” gave a T cell proliferation, [3H]thymidine incorporation in assay [1] below 500 cpm. In addition, in assay [2], the T cell proliferation, [3H]thymidine incorporation, 10 µg GBSIII-OVAp is 12700 cpm and the fold lower T cell proliferation against the same amount of OVAp stood at 23 fold. Moreover, in assay [3], the T cell proliferation, [3H]thymidine incorporation, 2.5 µg OVAp is 285000 cpm; the T cell proliferation, stimulation index (SI), 0.013 µg OVAp amounted to 35 SI; the T cell proliferation, stimulation index (SI), 0.13 µg OVAp worked out at 781 SI; the T cell proliferation, stimulation index (SI), 1.3 µg OVAp is 2940 SI.

Values taken from US9358302.
